Molecular target: anti-FLAG M2 mouse monoclonal IgG1 (Sigma-Aldrich PN F-3165)
Assay: capture on a 1 m Protein G capillary, elution with 14.7 mM phosphoric acid pH 2.2, Bradford assay at 595 nm

amount of IgG trapped and eluted: 2.5 µg
Substance: Protein G (CalBiochem, San Diego, Calif., PN 539303) (from UniProt P19909 303-497)

— patent US20040224362A1
